Experimental findings from publication PMC2917093 (Biochemistry, 2009) are described below.

Values joined by “and” are separate entries in the source; they are usually repeats but may differ in a detail not shown here. Equal entries are not always repeated.

For the assay, the target named is T1, human ribonucleotide reductase small subunit β′ (p53R2) (human, UniProt Q7LG56 1-351).
T1 sequence (looked up): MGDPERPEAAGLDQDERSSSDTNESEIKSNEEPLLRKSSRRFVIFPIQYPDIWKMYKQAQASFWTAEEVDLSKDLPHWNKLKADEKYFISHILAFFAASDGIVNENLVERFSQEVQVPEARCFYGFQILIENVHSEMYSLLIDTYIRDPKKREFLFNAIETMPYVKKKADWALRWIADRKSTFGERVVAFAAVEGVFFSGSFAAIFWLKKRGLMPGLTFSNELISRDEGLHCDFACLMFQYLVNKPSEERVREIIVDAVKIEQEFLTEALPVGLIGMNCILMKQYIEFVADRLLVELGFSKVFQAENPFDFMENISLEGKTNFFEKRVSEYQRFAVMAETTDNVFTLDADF
As to the kind of experiment: SEC. (In general: Size exclusion chromatography separates by hydrodynamic size, large species first.)

B1: human ribonucleotide reductase large subunit α (enzyme, UniProt P23921 1-792, looked up)
chain: MHVIKRDGRQERVMFDKITSRIQKLCYGLNMDFVDPAQITMKVIQGLYSGVTTVELDTLAAETAATLTTKHPDYAILAARIAVSNLHKETKKVFSDVMEDLYNYINPHNGKHSPMVAKSTLDIVLANKDRLNSAIIYDRDFSYNYFGFKTLERSYLLKINGKVAERPQHMLMRVSVGIHKEDIDAAIETYNLLSERWFTHASPTLFNAGTNRPQLSSCFLLSMKDDSIEGIYDTLKQCALISKSAGGIGVAVSCIRATGSYIAGTNGNSNGLVPMLRVYNNTARYVDQGGNKRPGAFAIYLEPWHLDIFEFLDLKKNTGKEEQRARDLFFALWIPDLFMKRVETNQDWSLMCPNECPGLDEVWGEEFEKLYASYEKQGRVRKVVKAQQLWYAIIESQTETGTPYMLYKDSCNRKSNQQNLGTIKCSNLCTEIVEYTSKDEVAVCNLASLALNMYVTSEHTYDFKKLAEVTKVVVRNLNKIIDINYYPVPEACLSNKRHRPIGIGVQGLADAFILMRYPFESAEAQLLNKQIFETIYYGALEASCDLAKEQGPYETYEGSPVSKGILQYDMWNVTPTDLWDWKVLKEKIAKYGIRNSLLIAPMPTASTAQILGNNESIEPYTSNIYTRRVLSGEFQIVNPHLLKDLTERGLWHEEMKNQIIACNGSIQSIPEIPDDLKQLYKTVWEISQKTVLKMAAERGAFIDQSQSLNIHIAEPNYGKLTSMHFYGWKQGLKTGMYYLRTRPAANPIQFTLNKEKLKDKEKVSKEEEEKERNTAAMVCSLENRDECLMCGS
Turning to B1, the “stoichiometry N” value is 1.2 α:β' and 1 α:β' and 1.06 α:β'.
